Stoichiometry N data for one substance are collected here from doi:10.1101/857730.

This experiment addresses Photorhabdus luminescens TcdA1 (TcA subunit of the Tc toxin) (P. luminescens) (UniProt Q9RN43). The experiment can be described thus: cryo-EM structure.

What is called stoichiometry N is a count of units in the complex or per binding partner. With “Photorhabdus luminescens TcdA1 (TcA subunit of the Tc toxin), Q9RN43 1-2516”, the stoichiometry N worked out at 5.
